# Tests used:
# Assay in all cases: HPLC of reaction products, Hanes-Woolf plot
# Settings in all cases: 50 mM Tris-HCl pH 8.0, 37°C, 33 nM enzyme
# [1] = test system: T1, O=C(O[C@@H]1Cc2c(O)cc(O)cc2O[C@@H]1c1cc(O)c(O)c(O)c1)c1cc(O)c(O)c(O)c1; type: biochemical, Lactiplantibacillus paraplantarum
# T1 construct: full ORF (1410 bp, 469 residues, 50,708 Da), C-terminal His tag, fused to YbdK signal peptide in pBE-S, expressed in Bacillus subtilis RIK 1285, purified from cells
# Text: (§1) HPLC of reaction products, Hanes-Woolf plot on TanLpa
# [2] = test system: T2, COc1cc(C(=O)O[C@@H]2Cc3c(O)cc(O)cc3O[C@@H]2c2cc(O)c(O)c(O)c2)cc(O)c1O; type: biochemical, Lactiplantibacillus paraplantarum
# T2 construct: full ORF (1410 bp, 469 residues, 50,708 Da), C-terminal His tag, fused to YbdK signal peptide in pBE-S, expressed in Bacillus subtilis RIK 1285, purified from cells
# Text: as §1
# [3] = test system: T3, O=C(O[C@@H]1Cc2c(O)cc(O)cc2O[C@H]1c1ccc(O)c(O)c1)c1cc(O)c(O)c(O)c1; type: biochemical, Lactiplantibacillus paraplantarum
# T3 construct: full ORF (1410 bp, 469 residues, 50,708 Da), C-terminal His tag, fused to YbdK signal peptide in pBE-S, expressed in Bacillus subtilis RIK 1285, purified from cells
# Text: as §1
# [4] = test system: T4, O=C(O[C@@H]1Cc2c(O)cc(O)cc2O[C@H]1c1cc(O)c(O)c(O)c1)c1cc(O)c(O)c(O)c1; type: biochemical, Lactiplantibacillus paraplantarum
# T4 construct: full ORF (1410 bp, 469 residues, 50,708 Da), C-terminal His tag, fused to YbdK signal peptide in pBE-S, expressed in Bacillus subtilis RIK 1285, purified from cells
# Text: as §1
# [5] = test system: T5, O=C(O[C@@H]1Cc2c(O)cc(O)cc2O[C@@H]1c1ccc(O)c(O)c1)c1cc(O)c(O)c(O)c1; type: biochemical, Lactiplantibacillus paraplantarum
# T5 construct: full ORF (1410 bp, 469 residues, 50,708 Da), C-terminal His tag, fused to YbdK signal peptide in pBE-S, expressed in Bacillus subtilis RIK 1285, purified from cells
# Text: as §1
# COC(=O)c1cc(O)c(O)c(O)c1 [6] = test system: T6, COC(=O)c1cc(O)c(O)c(O)c1; type: biochemical, Lactiplantibacillus paraplantarum
# T6 construct: full ORF (1410 bp, 469 residues, 50,708 Da), C-terminal His tag, fused to YbdK signal peptide in pBE-S, expressed in Bacillus subtilis RIK 1285, purified from cells
# Text: as §1
# [7] = test system: T7, COc1cc(C(=O)O[C@@H]2Cc3c(O)cc(O)cc3O[C@@H]2c2cc(O)c(O)c(O)c2)cc(O)c1O; type: biochemical, Lactiplantibacillus pentosus
# T7 construct: full ORF (1413 bp, 470 residues, 51,193 Da), C-terminal His tag, fused to YbdK signal peptide in pBE-S, expressed in Bacillus subtilis RIK 1285, purified from cells
# Text: (§2) HPLC of reaction products, Hanes-Woolf plot on TanLpe
# [8] = test system: T8, O=C(O[C@@H]1Cc2c(O)cc(O)cc2O[C@@H]1c1ccc(O)c(O)c1)c1cc(O)c(O)c(O)c1; type: biochemical, Lactiplantibacillus pentosus
# T8 construct: full ORF (1413 bp, 470 residues, 51,193 Da), C-terminal His tag, fused to YbdK signal peptide in pBE-S, expressed in Bacillus subtilis RIK 1285, purified from cells
# Text: as §2
# [9] = test system: T9, O=C(O[C@@H]1Cc2c(O)cc(O)cc2O[C@H]1c1ccc(O)c(O)c1)c1cc(O)c(O)c(O)c1; type: biochemical, Lactiplantibacillus pentosus
# T9 construct: full ORF (1413 bp, 470 residues, 51,193 Da), C-terminal His tag, fused to YbdK signal peptide in pBE-S, expressed in Bacillus subtilis RIK 1285, purified from cells
# Text: as §2
# COC(=O)c1cc(O)c(O)c(O)c1 [10] = test system: T10, COC(=O)c1cc(O)c(O)c(O)c1; type: biochemical, Lactiplantibacillus pentosus
# T10 construct: full ORF (1413 bp, 470 residues, 51,193 Da), C-terminal His tag, fused to YbdK signal peptide in pBE-S, expressed in Bacillus subtilis RIK 1285, purified from cells
# Text: as §2
# [11] = test system: T11, O=C(O[C@@H]1Cc2c(O)cc(O)cc2O[C@@H]1c1cc(O)c(O)c(O)c1)c1cc(O)c(O)c(O)c1; type: biochemical, Lactiplantibacillus pentosus
# T11 construct: full ORF (1413 bp, 470 residues, 51,193 Da), C-terminal His tag, fused to YbdK signal peptide in pBE-S, expressed in Bacillus subtilis RIK 1285, purified from cells
# Text: as §2
# [12] = test system: T12, O=C(O[C@@H]1Cc2c(O)cc(O)cc2O[C@H]1c1cc(O)c(O)c(O)c1)c1cc(O)c(O)c(O)c1; type: biochemical, Lactiplantibacillus pentosus
# T12 construct: full ORF (1413 bp, 470 residues, 51,193 Da), C-terminal His tag, fused to YbdK signal peptide in pBE-S, expressed in Bacillus subtilis RIK 1285, purified from cells
# Text: as §2
# [13] = substrate: O=C(O[C@@H]1Cc2c(O)cc(O)cc2O[C@H]1c1cc(O)c(O)c(O)c1)c1cc(O)c(O)c(O)c1; type: biochemical, Lactiplantibacillus plantarum
# Text: (§3) HPLC of reaction products, Hanes-Woolf plot on TanLpl
# [14] = substrate: O=C(O[C@@H]1Cc2c(O)cc(O)cc2O[C@H]1c1ccc(O)c(O)c1)c1cc(O)c(O)c(O)c1; type: biochemical, Lactiplantibacillus plantarum
# Text: as §3
# [15] = substrate: O=C(O[C@@H]1Cc2c(O)cc(O)cc2O[C@@H]1c1cc(O)c(O)c(O)c1)c1cc(O)c(O)c(O)c1; type: biochemical, Lactiplantibacillus plantarum
# Text: as §3
# [16] = substrate: COC(=O)c1cc(O)c(O)c(O)c1; type: biochemical, Lactiplantibacillus plantarum
# Text: as §3
# [17] = substrate: O=C(O[C@@H]1Cc2c(O)cc(O)cc2O[C@@H]1c1ccc(O)c(O)c1)c1cc(O)c(O)c(O)c1; type: biochemical, Lactiplantibacillus plantarum
# Text: as §3
# [18] = substrate: COc1cc(C(=O)O[C@@H]2Cc3c(O)cc(O)cc3O[C@@H]2c2cc(O)c(O)c(O)c2)cc(O)c1O; type: biochemical, Lactiplantibacillus plantarum
# Text: as §3
molecule,measurement,setting,value
TanLpa (Lactiplantibacillus paraplantarum),Km,[1],60 ± 10 µM
same,kcat,[1],14.29 ± 0.82 s⁻¹
same,kcat/Km,[1],261000 ± 46500 M⁻¹ s⁻¹
same,Km,[2],40 ± 4 µM
same,kcat,[2],0.35 ± 0.07 s⁻¹
same,kcat/Km,[2],9020 ± 2280 M⁻¹ s⁻¹
same,Km,[3],50 ± 5 µM
same,kcat,[3],8.1 ± 0.04 s⁻¹
same,kcat/Km,[3],182000 ± 27700 M⁻¹ s⁻¹
same,Km,[4],60 ± 2 µM
same,kcat,[4],9.2 ± 0.09 s⁻¹
same,kcat/Km,[4],155000 ± 7970 M⁻¹ s⁻¹
same,Km,[5],60 ± 10 µM
same,kcat,[5],11.08 ± 0.44 s⁻¹
same,kcat/Km,[5],195000 ± 21500 M⁻¹ s⁻¹
same,Km,COC(=O)c1cc(O)c(O)c(O)c1 [6],500 ± 60 µM
same,kcat,COC(=O)c1cc(O)c(O)c(O)c1 [6],72.73 ± 3.34 s⁻¹
same,kcat/Km,COC(=O)c1cc(O)c(O)c(O)c1 [6],145000 ± 10600 M⁻¹ s⁻¹
TanLpe (Lactiplantibacillus pentosus),Km,[7],5 ± 0.9 µM
same,kcat,[7],0.06 ± 0.02 s⁻¹
same,kcat/Km,[7],10600 ± 1330 M⁻¹ s⁻¹
same,Km,[8],50 ± 10 µM
same,kcat,[8],0.42 ± 0.03 s⁻¹
same,kcat/Km,[8],8630 ± 1170 M⁻¹ s⁻¹
same,Km,[9],80 ± 4 µM
same,kcat,[9],1.48 ± 0.11 s⁻¹
same,kcat/Km,[9],19200 ± 2360 M⁻¹ s⁻¹
same,Km,COC(=O)c1cc(O)c(O)c(O)c1 [10],870 ± 410 µM
same,kcat,COC(=O)c1cc(O)c(O)c(O)c1 [10],15.95 ± 3.13 s⁻¹
same,kcat/Km,COC(=O)c1cc(O)c(O)c(O)c1 [10],18800 ± 3080 M⁻¹ s⁻¹
same,Km,[11],60 ± 20 µM
same,kcat,[11],0.44 ± 0.02 s⁻¹
same,kcat/Km,[11],7250 ± 2510 M⁻¹ s⁻¹
same,Km,[12],70 ± 2 µM
same,kcat,[12],1.12 ± 0.13 s⁻¹
same,kcat/Km,[12],14300 ± 1950 M⁻¹ s⁻¹
"TanLpl (Lactiplantibacillus plantarum) (protein, full ORF (469 residues, ~50 kDa), C-terminal His tag, fused to YbdK signal peptide in pBE-S, expressed in Bacillus subtilis RIK 1285, purified from cells) MSNRLIFDADWLVPEQVQVAGQAIQYYAARNIQYVQHPVAAIQVLNVFVPAAYLHGSSVNGYQRATAPILMPNTVGGYLPGPADDPQRVTWPTNAGTIQQALKRGYVVVAAGIRGRTTVDKSGQRVGQAPAFIVDMKAAIRYVKYNQGRLPGDANRIITNGTSAGGATSALAGASGNSAYFEPALTALGAAPATDDIFAVSAYCPIHNLEHADMAYEWQFNGINDWHRYQPVAGTTKNGRPKFEPVSGQLTVEEQALSLALKAQFSTYLNQLKLTASDGTHLTLNEAGMGSFRDVVRQLLISSAQTAFDQGTDIHKYAGFVVTGNQVTDLDLSAYLKSLTRMKAVPAFDQLDLTSPENNLFGDATAKAKHFTALAQTRSTVTAQLADAELIQAINPLSYLTTTSSQVAKHWRIRHGAADRDTSFAIPIILAIMLENHGYGIDFALPWDIPHSGDYDLGDLFSWIDGLCQ",Km,[13],30 ± 8 µM
same,kcat,[13],0.89 ± 0.044 s⁻¹
same,kcat/Km,[13],27200 ± 6280 M⁻¹ s⁻¹
same,Km,[14],50 ± 2 µM
same,kcat,[14],2.41 ± 0.10 s⁻¹
same,kcat/Km,[14],53600 ± 4620 M⁻¹ s⁻¹
same,Km,[15],100 ± 10 µM
same,kcat,[15],1.12 ± 0.03 s⁻¹
same,kcat/Km,[15],11700 ± 1290 M⁻¹ s⁻¹
same,Km,[16],370 ± 40 µM
same,kcat,[16],46.02 ± 0.87 s⁻¹
same,kcat/Km,[16],125000 ± 15400 M⁻¹ s⁻¹
same,Km,[17],30 ± 20 µM
same,kcat,[17],1.49 ± 0.19 s⁻¹
same,kcat/Km,[17],52200 ± 25600 M⁻¹ s⁻¹
same,Km,[18],40 ± 9 µM
same,kcat,[18],0.26 ± 0.04 s⁻¹
same,kcat/Km,[18],6040 ± 570 M⁻¹ s⁻¹
